Results as given in publication PMC6391106 (2019).

Legend:
[1] = target: T1, recombinant human WT C3(H2O) (human, UniProt P01024 23-1663); assay: SPR; methylamine-treated C3
[2] = target: recombinant human C3(H2O) Asn1115 (human, UniProt P01024 23-1663, D1115N); assay: SPR; methylamine-treated C3
murine C3b Asn1115 = murine C3b Asn1115 (mouse, UniProt P01027 749-1663; P01027 749-1663, D1115N); assay: SPR
[3] = target: T1, recombinant human WT C3(H2O); assay: SPR

T1 sequence (P01024 23-1663): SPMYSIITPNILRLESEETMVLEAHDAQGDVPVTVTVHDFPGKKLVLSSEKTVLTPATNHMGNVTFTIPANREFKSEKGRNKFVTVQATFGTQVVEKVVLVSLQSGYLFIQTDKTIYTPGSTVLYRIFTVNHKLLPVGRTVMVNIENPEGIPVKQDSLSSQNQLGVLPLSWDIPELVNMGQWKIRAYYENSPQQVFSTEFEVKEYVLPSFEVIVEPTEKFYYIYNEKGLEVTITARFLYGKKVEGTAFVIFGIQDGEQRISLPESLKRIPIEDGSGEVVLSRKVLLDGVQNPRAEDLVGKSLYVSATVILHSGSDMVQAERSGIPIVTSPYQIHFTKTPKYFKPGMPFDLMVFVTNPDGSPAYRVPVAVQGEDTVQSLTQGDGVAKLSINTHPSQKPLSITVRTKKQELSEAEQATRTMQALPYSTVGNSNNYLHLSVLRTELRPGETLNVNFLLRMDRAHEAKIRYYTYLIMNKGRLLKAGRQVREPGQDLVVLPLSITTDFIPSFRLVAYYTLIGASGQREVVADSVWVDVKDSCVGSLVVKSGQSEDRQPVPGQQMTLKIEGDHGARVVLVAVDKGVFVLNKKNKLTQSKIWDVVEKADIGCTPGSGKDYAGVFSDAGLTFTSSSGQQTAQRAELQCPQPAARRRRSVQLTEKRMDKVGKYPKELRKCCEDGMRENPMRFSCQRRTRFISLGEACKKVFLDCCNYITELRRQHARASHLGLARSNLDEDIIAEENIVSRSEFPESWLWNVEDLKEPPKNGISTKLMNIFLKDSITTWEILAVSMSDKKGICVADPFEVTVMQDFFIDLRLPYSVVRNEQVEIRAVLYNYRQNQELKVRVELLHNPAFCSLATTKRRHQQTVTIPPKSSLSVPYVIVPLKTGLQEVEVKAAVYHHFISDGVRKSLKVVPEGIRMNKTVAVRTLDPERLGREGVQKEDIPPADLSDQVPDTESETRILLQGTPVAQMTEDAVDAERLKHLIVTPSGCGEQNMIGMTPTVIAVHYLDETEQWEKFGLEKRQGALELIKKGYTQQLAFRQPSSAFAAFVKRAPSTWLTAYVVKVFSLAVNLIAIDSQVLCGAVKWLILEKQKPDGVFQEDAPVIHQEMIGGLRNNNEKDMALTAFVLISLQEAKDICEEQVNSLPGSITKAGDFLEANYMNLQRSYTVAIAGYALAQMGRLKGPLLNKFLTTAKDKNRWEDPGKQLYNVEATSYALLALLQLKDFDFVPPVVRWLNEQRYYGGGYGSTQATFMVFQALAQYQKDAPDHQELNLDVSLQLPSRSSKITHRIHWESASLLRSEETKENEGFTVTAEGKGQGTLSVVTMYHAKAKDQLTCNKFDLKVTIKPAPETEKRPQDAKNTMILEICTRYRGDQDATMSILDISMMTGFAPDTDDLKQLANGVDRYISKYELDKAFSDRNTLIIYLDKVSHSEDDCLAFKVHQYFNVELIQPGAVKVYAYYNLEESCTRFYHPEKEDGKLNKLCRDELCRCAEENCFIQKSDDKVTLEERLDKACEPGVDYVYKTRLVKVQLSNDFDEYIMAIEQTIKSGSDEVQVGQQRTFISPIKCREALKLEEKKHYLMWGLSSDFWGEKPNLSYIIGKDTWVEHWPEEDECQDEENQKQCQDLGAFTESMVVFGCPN
Sequence of murine C3b Asn1115 (P01027 25-666, chain 1 of 2): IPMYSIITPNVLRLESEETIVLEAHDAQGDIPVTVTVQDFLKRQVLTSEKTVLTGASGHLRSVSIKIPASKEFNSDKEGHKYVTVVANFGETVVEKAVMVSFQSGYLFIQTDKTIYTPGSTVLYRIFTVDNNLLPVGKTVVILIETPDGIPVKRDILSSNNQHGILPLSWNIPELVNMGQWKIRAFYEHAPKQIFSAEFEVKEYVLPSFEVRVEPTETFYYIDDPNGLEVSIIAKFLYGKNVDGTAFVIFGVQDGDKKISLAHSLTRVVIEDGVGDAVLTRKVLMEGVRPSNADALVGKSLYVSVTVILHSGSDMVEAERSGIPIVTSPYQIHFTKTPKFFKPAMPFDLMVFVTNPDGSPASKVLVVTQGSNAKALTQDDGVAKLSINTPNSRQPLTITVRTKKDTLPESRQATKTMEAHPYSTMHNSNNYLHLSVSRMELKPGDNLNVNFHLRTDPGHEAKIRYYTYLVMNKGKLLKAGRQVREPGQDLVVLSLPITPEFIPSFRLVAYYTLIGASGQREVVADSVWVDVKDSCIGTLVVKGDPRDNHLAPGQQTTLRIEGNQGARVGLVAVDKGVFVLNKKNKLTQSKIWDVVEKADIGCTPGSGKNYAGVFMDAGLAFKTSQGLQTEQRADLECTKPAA
Sequence of murine C3b Asn1115 (P01027 749-1663 D1115N, chain 2 of 2): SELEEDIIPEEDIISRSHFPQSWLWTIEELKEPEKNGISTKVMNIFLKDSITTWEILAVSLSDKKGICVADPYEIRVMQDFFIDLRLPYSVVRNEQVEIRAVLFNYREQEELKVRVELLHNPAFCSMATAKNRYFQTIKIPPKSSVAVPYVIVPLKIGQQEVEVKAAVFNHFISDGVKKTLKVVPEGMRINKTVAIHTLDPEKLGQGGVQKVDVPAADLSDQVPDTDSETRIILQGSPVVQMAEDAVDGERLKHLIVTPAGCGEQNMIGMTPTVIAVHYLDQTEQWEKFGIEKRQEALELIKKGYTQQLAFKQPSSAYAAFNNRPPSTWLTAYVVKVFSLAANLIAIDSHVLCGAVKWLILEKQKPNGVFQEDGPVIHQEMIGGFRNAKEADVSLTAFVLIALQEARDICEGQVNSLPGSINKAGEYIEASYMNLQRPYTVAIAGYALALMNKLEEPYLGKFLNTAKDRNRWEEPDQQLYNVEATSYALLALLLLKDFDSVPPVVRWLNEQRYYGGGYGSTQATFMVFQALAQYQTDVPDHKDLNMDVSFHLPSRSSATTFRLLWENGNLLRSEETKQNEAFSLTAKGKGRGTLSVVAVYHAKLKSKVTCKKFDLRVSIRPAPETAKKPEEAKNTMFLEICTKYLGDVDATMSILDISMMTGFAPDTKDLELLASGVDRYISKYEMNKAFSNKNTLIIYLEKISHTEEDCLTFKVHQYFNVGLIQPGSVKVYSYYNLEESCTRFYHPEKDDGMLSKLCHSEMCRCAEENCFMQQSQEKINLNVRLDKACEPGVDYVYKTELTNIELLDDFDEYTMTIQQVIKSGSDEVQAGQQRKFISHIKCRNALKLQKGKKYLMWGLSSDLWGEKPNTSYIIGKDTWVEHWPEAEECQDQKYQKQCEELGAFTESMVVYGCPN
Sequence of recombinant human C3(H2O) Asn1115 (P01024 23-1663 D1115N): as the sequence (P01024 23-1663) above, with D1093N counted along it

B1: human FH (natural protein)
chain: EDCNELPPRRNTEILTGSWSDQTYPEGTQAIYKCRPGYRSLGNVIMVCRKGEWVALNPLRKCQKRPCGHPGDTPFGTFTLTGGNVFEYGVKAVYTCNEGYQLLGEINYRECDTDGWTNDIPICEVVKCLPVTAPENGKIVSSAMEPDREYHFGQAVRFVCNSGYKIEGDEEMHCSDDGFWSKEKPKCVEISCKSPDVINGSPISQKIIYKENERFQYKCNMGYEYSERGDAVCTESGWRPLPSCEEKSCDNPYIPNGDYSPLRIKHRTGDEITYQCRNGFYPATRGNTAKCTSTGWIPAPRCTLKPCDYPDIKHGGLYHENMRRPYFPVAVGKYYSYYCDEHFETPSGSYWDHIHCTQDGWSPAVPCLRKCYFPYLENGYNQNYGRKFVQGKSIDVACHPGYALPKAQTTVTCMENGWSPTPRCIRVKTCSKSSIDIENGFISESQYTYALKEKAKYQCKLGYVTADGETSGSITCGKDGWSAQPTCIKSCDIPVFMNARTKNDFTWFKLNDTLDYECHDGYESNTGSTTGSIVCGYNGWSDLPICYERECELPKIDVHLVPDRKKDQYKVGEVLKFSCKPGFTIVGPNSVQCYHFGLSPDLPICKEQVQSCGPPPELLNGNVKEKTKEEYGHSEVVEYYCNPRFLMKGPNKIQCVDGEWTTLPVCIVEESTCGDIPELEHGWAQLSSPPYYYGDSVEFNCSESFTMIGHRSITCIHGVWTQLPQCVAIDKLKKCKSSNLIILEEHLKNKKEFDHNSNIRYRCRGKEGWIHTVCINGRWDPEVNCSMAQIQLCPPPPQIPNSHNMTTTLNYRDGEKVSVLCQENYLIQEGEEITCKDGRWQSIPLCVEKIPCSQPPQIEHGTINSSRSSQESYAHGTKLSYTCEGGFRISEENETTCYMGKWSSPPQCEGLPCKSPPEISHGVVAHMSDSYQYGEEVTYKCFEGFGIDGPAIAKCLGEKWSHPPSCIKTDCLSLPSFENAIPMGEKKDVYKAGEQVTYTCATYYKMDGASNVTCINSRWTGRPTCRDTSCVNPPTVQNAYIVSRQMSKYPSGERVRYQCRSPYEMFGDEEVMCLNGNWTEPPQCKDSTGKCGPPPPIDNGDITSFPLSVYAPASSVEYQCQNLYQLEGNKRITCRNGQWSEPPKCLHPCVISREIMENYNIALRWTAKQKLYSRTGESVEFVCKRGYRLSSRSHTLRTTCWDGKLEYPTCAKR
Kd [1]: 3.79 µM | Kd [2]: 6.37 µM

B2: recombinant human FH SCRs 19–20 (domain or fragment)
chain: GKCGPPPPIDNGDITSFPLSVYAPASSVEYQCQNLYQLEGNKRITCRNGQWSEPPKCLHPCVISREIMENYNIALRWTAKQKLYSRTGESVEFVCKRGYRLSSRSHTLRTTCWDGKLEYPTCAK
modifications: C3b made from plasma-purified C3 by factor B/factor D cleavage (C3a released); beta and alpha' chains disulfide-linked; thioester (Cys1010-Gln1013) hydrolysed; N-glycosylated; amine-coupled to CM5 chip
Kd (murine C3b Asn1115): > 17.4 µM

B3: human membrane cofactor protein (MCP) (natural protein)
chain: CEEPPTFEAMELIGKPKPYYEIGERVDYKCKKGYFYIPPLATHTICDRNHTWLPVSDDACYRETCPYIRDPLNGQAVPANGTYEFGYQMHFICNEGYYLIGEEILYCELKGSVAIWSGKPPICEKVLCTPPPKIKNGKHTFSEVEVFEYLDAVTYSCDPAPGPDPFSLIGESTIYCGDNSVWSRAAPECKVVKCRFPVVENGKQISGFGKKFYYKATVMFECDKGFYLDGSDTIVCDSNSTWDPPVPKCLKVLPPSSTKPPALSHSVSTSSTTKSPASSASGPRPTYKPPVSNYPGYPKPEEGILDSLDVWVIAVIVIAIVVGVAVICVVPYRYLQRRKKKGTYLTDETHREVKFTSL
Kd [3]: 2.1 µM
